Results: patent US20200325237A1 (AVIDITY BIOSCIENCES, published 2020)

Legend:
[1] = target: T1, hTfR (human transferrin receptor, source and construct not stated) (human, UniProt P02786 89-760, limits assumed); experiment: SPR (BioRad ProteOn XPR36), average of the three 13E4_WT runs, mAb captured on Protein A, hTfR as analyte, 25 C
Method: (§1) The binding kinetics of nine exemplary humanized anti-TfR antibodies and the parent chimeric antibody were characterized. Studies were run on a BioRad ProteOn XPR36 optical biosensor using a GLM sensor chip coated with Protein A for mAb capture. Running buffer included 10 mM EPES, 150 mM NaCl, pH 7.4 with 0.05 tween-20 with 0.2 mg/ml BSA. Data were collected at 25 degrees C. All mAbs were diluted into running buffer to 2 ug/ml based on the stock concentration provided. Each was then captured for 40 seconds over a Protein A surface.
(§2) hTfR (100 ug) was dissolved into […] of water to yield a 4.3 uM stock concentration. hTfR was dilted to 43 nM as the highest concentration and tested in a 3 fold dilution series. hTfR was injected at 200 ul/min for 2 minutes followed by a one-hour dissociation phase.

[2] = target: T1, hTfR (human transferrin receptor, …); experiment: SPR (BioRad ProteOn XPR36), average of the three 13E4_WT runs, mAb captured on Protein A, hTfR as analyte, 25 C; Average (n = 3) of the three 13E4_WT runs
Method: as §1, §2

[3] = target: T1, hTfR (human transferrin receptor, …); experiment: ELISA; ratio of the Kd on transferrin-captured hTfR to the Kd on directly coated hTfR
Summary of the method: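 Human holo-transferrin coated at 500 ng/mL (4 °C overnight) captured hTfR (200 ng/mL, 30 min); comparison plates carried directly coated hTfR. Biotinylated antibodies, 3-fold series from 20 nM (pre-addition), bound 1 h; streptavidin-HRP/TMB, A450 minus A570. Kd from specific binding with Hill slope; shift judged against reference antibody AF2474 with transferrin-overlapping epitope.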

[4] = target: T2, TfR2 (transferrin receptor 2) (UniProt Q9UP52 105-801, limits assumed); experiment: A450 plate assay on TfR2 (method not described in the text)
T2 sequence (looked up): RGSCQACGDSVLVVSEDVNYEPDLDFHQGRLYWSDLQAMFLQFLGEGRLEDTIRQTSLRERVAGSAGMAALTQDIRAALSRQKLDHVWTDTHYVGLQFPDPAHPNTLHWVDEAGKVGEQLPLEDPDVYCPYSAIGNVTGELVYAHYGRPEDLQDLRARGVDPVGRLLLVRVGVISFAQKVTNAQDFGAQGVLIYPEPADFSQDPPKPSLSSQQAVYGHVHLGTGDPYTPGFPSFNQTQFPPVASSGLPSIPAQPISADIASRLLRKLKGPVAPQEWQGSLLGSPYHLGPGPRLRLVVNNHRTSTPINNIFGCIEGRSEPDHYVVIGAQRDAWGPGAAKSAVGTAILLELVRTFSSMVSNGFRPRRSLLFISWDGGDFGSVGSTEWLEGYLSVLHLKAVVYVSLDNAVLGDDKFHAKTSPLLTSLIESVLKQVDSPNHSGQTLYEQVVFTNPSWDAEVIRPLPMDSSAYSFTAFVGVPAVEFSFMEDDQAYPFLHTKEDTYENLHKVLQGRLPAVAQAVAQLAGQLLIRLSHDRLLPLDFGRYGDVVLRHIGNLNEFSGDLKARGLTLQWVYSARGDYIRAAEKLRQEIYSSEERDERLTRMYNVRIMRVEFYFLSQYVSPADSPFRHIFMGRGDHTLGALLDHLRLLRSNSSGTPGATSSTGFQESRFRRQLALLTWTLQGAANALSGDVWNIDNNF

T1 sequence (P02786 89-760 limits assumed): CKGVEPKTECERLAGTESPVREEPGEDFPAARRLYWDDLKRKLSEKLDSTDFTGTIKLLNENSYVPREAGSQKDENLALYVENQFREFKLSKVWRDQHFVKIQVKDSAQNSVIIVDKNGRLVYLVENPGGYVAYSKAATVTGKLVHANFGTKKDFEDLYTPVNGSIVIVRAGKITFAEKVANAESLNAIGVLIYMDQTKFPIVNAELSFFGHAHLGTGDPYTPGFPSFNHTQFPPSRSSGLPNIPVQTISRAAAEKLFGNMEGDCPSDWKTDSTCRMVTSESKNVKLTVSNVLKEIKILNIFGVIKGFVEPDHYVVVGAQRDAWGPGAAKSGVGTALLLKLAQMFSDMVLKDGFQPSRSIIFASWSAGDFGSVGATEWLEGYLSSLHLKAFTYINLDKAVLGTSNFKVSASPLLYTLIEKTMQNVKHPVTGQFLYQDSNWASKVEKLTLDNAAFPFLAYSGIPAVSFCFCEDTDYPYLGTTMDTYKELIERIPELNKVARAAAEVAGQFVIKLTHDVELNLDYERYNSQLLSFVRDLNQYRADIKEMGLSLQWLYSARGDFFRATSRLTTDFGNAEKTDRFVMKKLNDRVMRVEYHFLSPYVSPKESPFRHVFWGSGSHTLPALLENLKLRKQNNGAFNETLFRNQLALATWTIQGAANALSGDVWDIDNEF

B1: 13E4_WT (parent chimeric anti-TfR antibody) (antibody, V domains shown)
VH: QVQLQQPGAELVKPGASVKLSCKASGYTFTNYWMHWVKQRPGQGLEWIGEINPINGRSNYGERFKTKATLTVDKSSSTAYMQLSSLTSEDSAVYYCARGTRAMHYWGQGTSVTVSS
VL: DIQMTQSPASLSVSVGETVTITCRTSENIYNNLAWYQQKQGKSPQLLVYAATNLADGVPSRFSGSGSGTQYSLKINSLQSEDFGNYYCQHFWGTPLTFGAGTKLELK
notes: also called 13E4_WT 1st; 13E4_WT 2nd
- Kd [1]: 1.1 pM
- koff [1]: 1e-06 s⁻¹
- kon [2]: 900000 M⁻¹ s⁻¹
- Kd(Tf+TfR)/Kd(TfR) [3]: 3.1
- binding result [4]: no binding (tested: 1000 nM)
